Our source for the chemotaxis of ovine PBMCs, chemotaxis of HTS-1 cells transfected with caprine CXCR3 and chemotaxis of KU-1 cells transfected with caprine CXCR3 (modified Boyden chamber) values is patent US20060234925A1.

Test [1] concerns the target ovine CXCR3 on peripheral blood mononuclear cells (ovine). Kind of test: cell-based or functional assay.
Test [2] addresses caprine CXCR3 (caprine (goat)) (UniProt Q867B2). Kind of test: cell-based or functional assay.
Chain of UniProt Q867B2 (Q867B2 whole entry): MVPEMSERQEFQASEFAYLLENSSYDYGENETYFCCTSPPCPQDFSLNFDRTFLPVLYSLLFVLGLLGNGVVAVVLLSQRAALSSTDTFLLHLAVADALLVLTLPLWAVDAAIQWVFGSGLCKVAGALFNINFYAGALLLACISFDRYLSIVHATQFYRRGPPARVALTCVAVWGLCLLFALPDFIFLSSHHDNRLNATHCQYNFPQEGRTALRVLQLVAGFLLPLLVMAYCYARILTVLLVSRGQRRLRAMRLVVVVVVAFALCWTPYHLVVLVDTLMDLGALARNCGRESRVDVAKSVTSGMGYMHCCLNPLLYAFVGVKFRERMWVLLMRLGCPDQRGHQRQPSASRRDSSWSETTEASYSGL

In turn, “recombinant caprine IP-10 (N-terminal histidine tag, mature region, expressed from pET-14b-cIP-10 in E. coli BL21-SI) (ligand)” had a chemotaxis of ovine PBMCs in test [1] of 0.2 to 5 ng/mL. In test [2], the chemotaxis of HTS-1 cells transfected with caprine CXCR3 lay in the range of 1 to 20 ng/mL and the chemotaxis of KU-1 cells transfected with caprine CXCR3 (modified Boyden chamber) lay within 1 to 20 ng/mL.
